Molecular target: T1, IL-18Rα, human (human, UniProt Q13478 19-541)
T1 construct: whole, on cells; Detected on human NK cells with mouse monoclonal anti-IL-18Rα (Clone 70625; R&D Systems); also called IL-1R5/IL-18R
T1 sequence (looked up): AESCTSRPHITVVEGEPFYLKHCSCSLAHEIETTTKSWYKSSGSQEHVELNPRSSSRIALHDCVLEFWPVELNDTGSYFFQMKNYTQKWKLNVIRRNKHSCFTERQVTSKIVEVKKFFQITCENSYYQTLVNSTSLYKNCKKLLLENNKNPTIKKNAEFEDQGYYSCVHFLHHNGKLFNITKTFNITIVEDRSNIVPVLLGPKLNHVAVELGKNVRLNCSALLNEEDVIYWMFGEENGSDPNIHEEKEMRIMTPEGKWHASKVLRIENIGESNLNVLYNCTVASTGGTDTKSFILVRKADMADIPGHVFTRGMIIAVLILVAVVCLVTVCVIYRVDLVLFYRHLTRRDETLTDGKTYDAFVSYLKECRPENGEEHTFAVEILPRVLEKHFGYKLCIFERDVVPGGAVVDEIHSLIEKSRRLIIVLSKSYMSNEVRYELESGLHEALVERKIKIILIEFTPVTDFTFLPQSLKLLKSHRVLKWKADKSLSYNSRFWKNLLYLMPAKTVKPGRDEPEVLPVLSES
Assay: STED microscopy of human NK cells stimulated with IL-18, co-stained with anti-IL-1R8 and anti-IL-18Rα antibodies
Description: Human NK cells were enriched and left to adhere on poly-D-lysine (Sigma-Aldrich)-coated coverslips, stimulated with IL-18 (50 ng ml⁻¹; 1 min, 5 min, 10 min), fixed with 4% PFA, incubated with 5% normal donkey serum (Sigma-Aldrich), 2% BSA, 0.05% Tween in PBS2+ (pH 7.4) (blocking buffer), and then with biotin-conjugated goat polyclonal anti-human IL-1R8 antibody or biotin-conjugated normal goat IgG (all from R&D Systems) and mouse monoclonal anti-IL-18Rα (Clone 70625; R&D Systems) or mouse IgG1 (Invitrogen), all diluted at 5 μg ml⁻¹ in blocking buffer, followed by Alexa Fluor 488-conjugated donkey anti-goat IgG antibody and Alexa Fluor 555 donkey anti-mouse IgG antibody (both from Molecular Probes). Mowiol was used as mounting medium. STED xyz images were acquired in a unidirectional mode with a Leica SP8 STED3X confocal microscope system. Alexa Fluor 488 was excited with a 488 nm argon laser and emission collected from 505 to 550 nm applying a gating between 0.4 and 7 ns to avoid collection of reflection and autofluorescence. Alexa Fluor 555 was excited with a 555/547 nm-tuned white light laser and emission collected from 580 to 620 nm. Line sequential acquisition was applied to avoid fluorescence overlap. The 660 nm CW-depletion laser (80% of power) was used for both excitations. […]

B1: Interleukin-1 receptor 8 (IL-1R8), human (receptor)
chain: MPGVCDRAPDFLSPSEDQVLRPALGSSVALNCTAWVVSGPHCSLPSVQWLKDGLPLGIGGHYSLHEYSWVKANLSEVLVSSVLGVNVTSTEVYGAFTCSIQNISFSSFTLQRAGPTSHVAAVLASLLVLLALLLAALLYVKCRLNVLLWYQDAYGEVEINDGKLYDAYVSYSDCPEDRKFVNFILKPQLERRRGYKLFLDDRDLLPRAEPSADLLVNLSRCRRLIVVLSDAFLSRAWCSHSFREGLCRLLELTRRPIFITFEGQRRDPAHPALRLLRQHRHLVTLLLWRPGSVTPSSDFWKEVQLALPRKVQYRPVEGDPQTQLQDDKDPMLILRGRVPEGRALDSEVDPDPEGDLGVRGPVFGEPSAPPHTSGVSLGESRSSEVDVSDLGSRNYSARTDFYCLVSKDDM
notes: Endogenous IL-1R8 on human primary NK cells; NP_001128525.1, NP_001128526.1, NP_068577.2); also called SIGIRR; single immunoglobulin IL-1R-related receptor
binding result: binds

Source: patent US20200281977A1 (HUMANITAS MIRASOLE S P A, published 2020)
